In patent US20250304655A1 (CSL BEHRING, published 2025):

Key:
Assay in all cases: BLI, LRP1 cluster III immobilised, analyte 2000-31.25 nM, kinetic fit 1:1
[1] = target: T1, heme:Hx (plasma derived hemopexin complexed with heme) (UniProt P02790 24-462, limits assumed, heme bound, not covalent)
T1 construct: mature; Heme-loaded plasma-derived hemopexin, analyte in BLI; also called heme complexed plasma derived Hx; heme-hemopexin complex
T1 sequence (looked up): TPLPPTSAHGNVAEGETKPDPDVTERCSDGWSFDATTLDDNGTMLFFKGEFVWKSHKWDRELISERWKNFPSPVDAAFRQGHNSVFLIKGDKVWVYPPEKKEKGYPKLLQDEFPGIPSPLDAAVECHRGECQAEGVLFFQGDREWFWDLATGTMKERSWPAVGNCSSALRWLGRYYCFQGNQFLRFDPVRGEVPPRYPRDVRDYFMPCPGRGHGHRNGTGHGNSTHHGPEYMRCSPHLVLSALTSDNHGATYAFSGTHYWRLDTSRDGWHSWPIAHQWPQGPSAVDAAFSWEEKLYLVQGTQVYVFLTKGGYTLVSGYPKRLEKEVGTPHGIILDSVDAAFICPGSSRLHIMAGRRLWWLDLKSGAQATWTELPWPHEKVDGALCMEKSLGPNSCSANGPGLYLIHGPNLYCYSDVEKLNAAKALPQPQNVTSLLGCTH
Method: (§1) Streptavidin pre-coated biosensors (Cat No: 18-5019, FortéBio) were used. […] A reference control was included in every experiment (sensor loaded with ligand without analyte). Data was acquired on an OctetRED96 (FortéBio) at 30° C. with the following settings:
(§2) Since the full length receptor is challenging to express recombiantly, we immobilized only a fragment of CD91/LRP1 (cluster III).

heme:Hx-Hp complex = target: T2, heme:Hx-Hp complex (human, UniProt P02790 24-462; P00738 162-406, heme bound, not covalent)
T2 construct: The Hx-Hp fusion protein loaded with heme
Method: as §1, §2

[2] = target: T3, HuHemopexin-HuHaptoglobin2FS(148-406)-8His (human, UniProt P02790 24-462; P00738 162-406)
T3 construct: Cleaved by co-expressed C1r-LP; the two chains are held by the inter-chain disulphide; Uncomplexed form (no heme, no Hb)
Method: as §1, §2

T2 sequence (P00738 other isoform, or with tags, fused parts or gaps): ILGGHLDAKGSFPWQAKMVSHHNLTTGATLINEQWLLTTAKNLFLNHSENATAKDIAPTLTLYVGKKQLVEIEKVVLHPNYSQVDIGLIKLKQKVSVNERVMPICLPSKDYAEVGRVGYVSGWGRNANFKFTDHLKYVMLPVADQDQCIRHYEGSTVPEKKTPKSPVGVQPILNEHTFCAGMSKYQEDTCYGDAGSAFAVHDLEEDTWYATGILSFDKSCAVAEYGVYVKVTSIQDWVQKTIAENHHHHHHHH
T3 sequence (P00738 other isoform, or with tags, fused parts or gaps): as above

- Kd [1]: 392 nM
- koff [1]: 0.068 s⁻¹
- kon [1]: 170000 M⁻¹ s⁻¹
- Kd (heme:Hx-Hp complex): 480 nM
- koff (heme:Hx-Hp complex): 0.044 s⁻¹
- kon (heme:Hx-Hp complex): 91000 M⁻¹ s⁻¹
- Kd [2]: 2700 nM
- koff [2]: 0.039 s⁻¹
- kon [2]: 15000 M⁻¹ s⁻¹
B1: biotinylated LRP1 Cluster III (receptor)
chain: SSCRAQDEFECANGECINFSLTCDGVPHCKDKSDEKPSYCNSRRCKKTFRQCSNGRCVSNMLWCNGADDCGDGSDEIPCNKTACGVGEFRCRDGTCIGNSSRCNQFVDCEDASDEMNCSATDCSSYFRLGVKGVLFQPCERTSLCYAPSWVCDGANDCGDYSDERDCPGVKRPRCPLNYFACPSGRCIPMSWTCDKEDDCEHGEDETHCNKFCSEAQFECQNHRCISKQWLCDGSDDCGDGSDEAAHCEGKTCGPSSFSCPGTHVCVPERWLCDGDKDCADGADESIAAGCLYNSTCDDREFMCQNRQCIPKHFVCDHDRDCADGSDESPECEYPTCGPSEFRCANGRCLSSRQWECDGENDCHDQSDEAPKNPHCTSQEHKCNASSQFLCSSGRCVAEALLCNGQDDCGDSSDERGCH
modifications: biotinylated
notes: Detected with an anti-His antibody, so it appears to carry a His tag; also called LRP1/CD91 domain 3; CD91/LRP1 (cluster III)
